Like-named read-outs stand apart in the source and are kept apart here. Marks after values point to notes of the source that are not given here.
Assays:
[1] = rats; cited from earlier work
[2] = Blood concentration profile in rats (1)
Description: Blood Concentration Profile in Rats (1)
(§1) At 5 minutes, 1 hour, 6 hours, 24 hours, and 72 hours after administration, blood was collected through the jugular vein under isoflurane anesthesia successively in an amount of 0.3 mL each time, and the tacrolimus concentration in the collected blood was measured.

[3] = test system: rat collagen-induced arthritis; experiment: Anti-inflammatory effect for rat collagen-induced arthritis (1); format: in vivo; details: 5 mg/kg, q7 d × 4, i.v., DA rats, average score 0-5, footnote: Score 29 d
Description: Anti-Inflammatory Effect for Rat Collagen-Induced Arthritis (1)
0.3 mg of bovine articular cartilage-derived type II collagen (immunological grade; Collagen Research Center, Ltd.) was intradermally administered on the dorsal side of nine-week old female DA rats (Japan SLC, Inc.), and thereby collagen-induced arthritis was induced in the rats. […] As a control, a non-administered group was provided. Determination of arthritis was made by scoring based on visual inspection.
From the time point after the sensitization with bovine articular cartilage-derived type II collagen, the progress of inflammation in the right hind limb and the left hind limb was monitored. It was determined that the onset of collagen-induced arthritis occurred when reddening was recognized in the toes of the right hind limb or the left hind limb. The extent of arthritis was evaluated in six stages according to the following scores from 0 to 5. […]

[4] = rat, in vivo, iv, 5 mg/kg
Description: Blood Concentration Profile in Rats (1)
as §1

## C=CC[C@@H]1/C=C(\C)C[C@H](C)C[C@H](OC)[C@H]2O[C@@](O)(C(=O)C(=O)N3CCCC[C@H]3C(=O)O[C@H](/C(C)=C/[C@@H]3CC[C@@H](O)[C@H](OC)C3)[C@H](C)[C@@H](O)CC1=O)[C@H](C)C[C@@H]2OC [Tacrolimus, tacrolimus]
[1]
  signs caused by intravenous administration: slight respiratory distress, a decrease in locomotor activity, a prone position, stereotyped behavior
[2]; female SD rats, i.v. once 5 mg/kg, tacrolimus in blood
  Tmax: 5 min
[2]; female, SD, rat, whole blood, iv, 5 mg/kg
  concentration at 72 h: 0.273 ng/mL

## Tacrolimus-Bonded Polyethylene Glycol-αβ-Polyaspartic Acid Block Copolymer [Comparative Example 1]
[3]
  Arthritis score (29 d): 2.6*
[4]
  AUCinf.: 1050 ng·h/mL
  Cmax: 280 ng/mL
  MRTinf.: 11.6 h
  MRTinf. compared to tacrolimus: prolongation
  Tmax: 5 min
  T½: 9.57 h
  blood concentration half-life compared to tacrolimus: prolongation

Source: patent publication US10945997B2, “Polymer derivative of macrolide immunosuppressant” (Nippon Kayaku Kabushiki Kaisha, priority 2016, dated 2021)
